Data published in PMC3408954.

Assays:
[1] = molecular target: T1, human chemokine receptor CXCR4 fused to the N-terminus of GFP or TagRFP (human), P61073; test: FRET or BRET; settings: remark: other sources report otherwise
T1 chain: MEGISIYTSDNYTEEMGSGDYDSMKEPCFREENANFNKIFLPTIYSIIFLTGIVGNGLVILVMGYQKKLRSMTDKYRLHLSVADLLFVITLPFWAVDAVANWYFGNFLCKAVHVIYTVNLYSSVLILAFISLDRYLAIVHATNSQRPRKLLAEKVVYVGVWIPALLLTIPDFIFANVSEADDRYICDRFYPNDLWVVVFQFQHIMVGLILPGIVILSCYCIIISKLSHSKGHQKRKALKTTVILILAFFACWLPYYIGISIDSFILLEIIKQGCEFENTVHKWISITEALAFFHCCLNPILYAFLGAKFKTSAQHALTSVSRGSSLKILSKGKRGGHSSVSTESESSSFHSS

[2] = molecular target: T1, human chemokine receptor CXCR4 fused to …; test: FRET or BRET; settings: remark: other sources report otherwise

B1: human chemokine receptor CXCR4 fused to the N-terminus of GFP or TagRFP, P61073 1-352 (receptor)
chain: MEGISIYTSDNYTEEMGSGDYDSMKEPCFREENANFNKIFLPTIYSIIFLTGIVGNGLVILVMGYQKKLRSMTDKYRLHLSVADLLFVITLPFWAVDAVANWYFGNFLCKAVHVIYTVNLYSSVLILAFISLDRYLAIVHATNSQRPRKLLAEKVVYVGVWIPALLLTIPDFIFANVSEADDRYICDRFYPNDLWVVVFQFQHIMVGLILPGIVILSCYCIIISKLSHSKGHQKRKALKTTVILILAFFACWLPYYIGISIDSFILLEIIKQGCEFENTVHKWISITEALAFFHCCLNPILYAFLGAKFKTSAQHALTSVSRGSSLKILSKGKRGGHSSVSTESESSSFHSS
FRET efficiency [1]: 10.4% | FRET efficiency [2]: 10.9%
